In patent US8026218 (UNIVERSITY OF ARIZONA, dated 2011):
Where two headings read alike, the source gives them in different places. Bridge positions count the residues as written; N and C are the ends. Square brackets hold non-standard residues; d marks the D form. Ends that are not written are not given here. * marks the point of attachment. NH(3,5-(CF3)2-benzyl) = FC(F)(F)c1cc(CN*)cc(C(F)(F)F)c1; OBzl(3,5-(CF3)2) = FC(F)(F)c1cc(CO*)cc(C(F)(F)F)c1; Phe(4-F) = N[C@@H](Cc1ccc(F)cc1)C(=O)O; Nle = CCCC[C@H](N)C(=O)O

Tests used:
[1] = target: µ opioid receptor of the guinea pig isolated ileum (guinea pig, UniProt P97266 1-98); experiment: cell-based or functional assay
Target sequence in this assay (P97266 whole entry): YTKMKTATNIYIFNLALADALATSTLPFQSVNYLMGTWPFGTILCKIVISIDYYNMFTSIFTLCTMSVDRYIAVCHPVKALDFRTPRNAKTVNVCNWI

rat NK1 receptor [2] = target: T1, rat NK1 receptor (rat, UniProt P14600 1-407); experiment: competition vs [3H]Substance P, rNK1 CHO cell membranes
T1 construct: whole, on cells; membrane preparations of the transfected cells were used; also called rNK1; rNK-1

human δ opioid receptor [3] = target: T2, human δ opioid receptor (human, UniProt P41143 1-372); experiment: competition vs [3H]DPDPE, hDOR cell membranes
T2 construct: whole, on cells; membrane preparations of the transfected cells were used; also called hDOR; DOR

human NK1 receptor [4] = target: T3, human NK1 receptor (human, UniProt P25103 1-407); experiment: competition vs [3H]Substance P, hNK1 CHO cell membranes
T3 construct: whole, on cells; membrane preparations of the transfected cells were used; also called hNK1; human neurokinin-1 receptor

[5] = target: T4, µ opioid receptor of the guinea pig isolated ileum (guinea pig, UniProt P97266 1-98); experiment: cell-based or functional assay; remark: listed apart in the source
T4 sequence (P97266 whole entry): as above

guinea pig NK1 receptor [6] = target: T5, guinea pig NK1 receptor (guinea pig, UniProt P30547 1-407); experiment: cell-based or functional assay
rat µ opioid receptor [7] = target: T6, rat µ opioid receptor (rat, UniProt P33535 1-398); experiment: competition vs [3H]DAMGO, rMOR cell membranes
T6 construct: whole, on cells; membrane preparations of the transfected cells were used; also called rMOR; MOR

human δ opioid receptor [8] = target: T2, human δ opioid receptor; experiment: cell-based or functional assay
human NK1 receptor [9] = target: T3, human NK1 receptor; experiment: competition vs [3H]Substance P, hNK1 CHO cell membranes; remark: listed apart in the source
human NK1 receptor [10] = target: T3, human NK1 receptor; experiment: as above; remark: listed apart in the source
rat µ opioid receptor [11] = target: T6, rat µ opioid receptor; experiment: cell-based or functional assay
[12] = target: T4, µ opioid receptor of the guinea pig …; experiment: cell-based or functional assay; remark: listed apart in the source
[13] = target: T4, µ opioid receptor of the guinea pig …; experiment: cell-based or functional assay; remark: listed apart in the source
rat NK1 receptor [14] = target: T1, rat NK1 receptor; experiment: competition vs [3H]Substance P, rNK1 CHO cell membranes; remark: listed apart in the source
rat µ opioid receptor [15] = target: T6, rat µ opioid receptor; experiment: competition vs [3H]DAMGO, rMOR cell membranes; remark: listed apart in the source
human δ opioid receptor [16] = target: T2, human δ opioid receptor; experiment: cell-based or functional assay; remark: listed apart in the source
rat µ opioid receptor [17] = target: T6, rat µ opioid receptor; experiment: cell-based or functional assay; remark: listed apart in the source
rat NK1 receptor [18] = target: T1, rat NK1 receptor; experiment: competition vs [3H]Substance P, rNK1 CHO cell membranes; remark: listed apart in the source
human δ opioid receptor [19] = target: T2, human δ opioid receptor; experiment: competition vs [3H]DPDPE, hDOR cell membranes; remark: listed apart in the source
[20] = target: T4, µ opioid receptor of the guinea pig …; experiment: cell-based or functional assay; remark: listed apart in the source
guinea pig NK1 receptor [21] = target: T5, guinea pig NK1 receptor; experiment: cell-based or functional assay; remark: listed apart in the source

T1 sequence (P14600 whole entry): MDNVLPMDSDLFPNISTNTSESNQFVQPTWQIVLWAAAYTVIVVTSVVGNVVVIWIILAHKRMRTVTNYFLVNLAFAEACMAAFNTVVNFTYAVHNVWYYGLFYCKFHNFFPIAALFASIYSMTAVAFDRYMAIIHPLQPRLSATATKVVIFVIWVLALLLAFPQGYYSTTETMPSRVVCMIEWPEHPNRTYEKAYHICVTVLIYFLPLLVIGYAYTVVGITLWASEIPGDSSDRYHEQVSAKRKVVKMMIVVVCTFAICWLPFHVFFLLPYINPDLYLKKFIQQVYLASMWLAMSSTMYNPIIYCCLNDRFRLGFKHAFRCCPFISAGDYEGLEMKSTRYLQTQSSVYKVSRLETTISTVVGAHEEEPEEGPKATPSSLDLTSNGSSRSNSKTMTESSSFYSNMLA
T3 sequence (P25103 whole entry): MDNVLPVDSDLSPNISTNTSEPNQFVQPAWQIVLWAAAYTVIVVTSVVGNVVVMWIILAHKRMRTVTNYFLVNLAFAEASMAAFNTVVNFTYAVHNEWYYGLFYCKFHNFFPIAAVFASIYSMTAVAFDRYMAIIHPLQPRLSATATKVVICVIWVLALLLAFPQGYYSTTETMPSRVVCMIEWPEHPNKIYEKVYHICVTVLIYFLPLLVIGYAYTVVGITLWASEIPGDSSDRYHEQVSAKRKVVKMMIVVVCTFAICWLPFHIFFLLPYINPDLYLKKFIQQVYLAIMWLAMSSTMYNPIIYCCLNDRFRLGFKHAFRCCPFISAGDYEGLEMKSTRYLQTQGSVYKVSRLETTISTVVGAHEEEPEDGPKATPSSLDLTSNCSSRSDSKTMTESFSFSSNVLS
T5 sequence (P30547 whole entry): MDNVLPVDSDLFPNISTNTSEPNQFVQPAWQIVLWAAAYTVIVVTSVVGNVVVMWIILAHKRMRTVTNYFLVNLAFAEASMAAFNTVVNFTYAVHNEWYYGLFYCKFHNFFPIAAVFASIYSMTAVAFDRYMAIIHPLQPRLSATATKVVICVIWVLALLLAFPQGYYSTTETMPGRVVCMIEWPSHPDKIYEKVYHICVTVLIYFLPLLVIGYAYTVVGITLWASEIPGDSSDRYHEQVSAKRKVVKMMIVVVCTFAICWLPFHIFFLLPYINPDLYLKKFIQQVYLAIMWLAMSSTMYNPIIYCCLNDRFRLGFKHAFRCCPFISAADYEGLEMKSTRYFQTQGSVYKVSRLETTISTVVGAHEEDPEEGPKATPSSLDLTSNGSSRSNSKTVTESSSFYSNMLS
T2 sequence (P41143 whole entry, stated change not applied): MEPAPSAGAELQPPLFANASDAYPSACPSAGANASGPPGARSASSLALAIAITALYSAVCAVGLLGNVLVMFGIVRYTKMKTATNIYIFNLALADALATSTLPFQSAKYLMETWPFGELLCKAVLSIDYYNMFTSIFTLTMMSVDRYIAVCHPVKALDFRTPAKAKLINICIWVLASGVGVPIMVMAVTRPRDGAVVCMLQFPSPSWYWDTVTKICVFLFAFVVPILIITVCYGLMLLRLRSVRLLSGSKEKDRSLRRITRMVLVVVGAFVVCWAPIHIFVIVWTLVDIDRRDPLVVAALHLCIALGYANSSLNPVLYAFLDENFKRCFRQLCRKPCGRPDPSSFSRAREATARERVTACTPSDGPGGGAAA
T6 sequence (P33535 whole entry): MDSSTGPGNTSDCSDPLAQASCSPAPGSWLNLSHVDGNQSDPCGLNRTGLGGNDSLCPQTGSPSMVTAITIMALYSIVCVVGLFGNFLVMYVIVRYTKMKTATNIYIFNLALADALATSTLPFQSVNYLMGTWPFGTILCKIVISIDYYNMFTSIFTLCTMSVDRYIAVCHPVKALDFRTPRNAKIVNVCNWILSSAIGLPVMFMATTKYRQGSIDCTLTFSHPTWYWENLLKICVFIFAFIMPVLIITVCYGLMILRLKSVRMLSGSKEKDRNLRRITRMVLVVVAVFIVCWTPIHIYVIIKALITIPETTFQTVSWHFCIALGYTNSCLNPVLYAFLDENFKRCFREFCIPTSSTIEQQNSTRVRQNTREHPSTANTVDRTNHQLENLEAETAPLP

Y[dA]G[Phe(4-F)]-{OBzl(3,5-(CF3)2)} [Tyr-D-Ala-Gly-pFPhe-O-3′,5′(CF3)2-Bzl (NP62)]
GPI µ-agonist IC50 [1]: 208 nM

B1: Tyr[DCysGlyPheNleProCys]TrpNHBn(CF3)2 (peptide)
peptide: Y[dC]GF[Nle]PCW-{NH(3,5-(CF3)2-benzyl)}
modifications: disulfide 2-7
notes: cyclic; also called TY035; [D-Cys2, Cys7]TY027
LogIC50 (rat NK1 receptor [2]): -7 | Ki (human δ opioid receptor [3]): 1.3 nM | LogIC50 (human δ opioid receptor [3]): -8.6 | Ki (human NK1 receptor [4]): 0.1 nM | LogIC50 (human NK1 receptor [4]): -9.7 | GPI (µ) IC50 [5]: 1000 nM | GPI Substance P antagonist Ke (guinea pig NK1 receptor [6]): 2.2 nM | Ki (rat µ opioid receptor [7]): 79 nM | LogIC50 (rat µ opioid receptor [7]): -6.8 | [35S]GTPγS binding EC50 (human δ opioid receptor [8]): 0.02 nM | [35S]GTPγS binding Emax (human δ opioid receptor [8]): 11% | [35S]GTPγS binding LogEC50 (human δ opioid receptor [8]): -10.8

Y[dA]GFW-{OBzl(3,5-(CF3)2)} (also called NP36) [Tyr-D-Ala-Gly-Phe-Trp-O-3′,5′(CF3)2-Bzl]
Ki (human NK1 receptor [9]): 0.0005 nM

B2: DmtDAlaGlyPheNleProLeuTrpNHBn(CF3)2 (peptide)
peptide: YAGFXPLW
modifications: Dmt at 1 (written Y); D-Ala at 2; Nle at 5 (written X); C-terminal NH-3,5-Bzl(CF3)2 amide
notes: also called TY050
Ki (human NK1 receptor [10]): 0.075 nM

B3: DmtDAlaGlyPheNleProLeuTrpNHBn-3-(CF3) (peptide)
peptide: YAGFXPLW
modifications: Dmt at 1 (written Y); D-Ala at 2; Nle at 5 (written X); C-terminal NH-3-Bn(CF3) amide
notes: also called TY053
Ki (human NK1 receptor [10]): 1.04 nM

Y[dA]GW-{OBzl(3,5-(CF3)2)} [Tyr-D-Ala-Gly-Trp-O-3′,5′(CF3)2-Bzl (NP44)]
GPI µ-agonist IC50 [1]: 844 nM

B4: Tyr[DCysGlyPheDCys]ProLeuTrpNHBn(CF3)2 (peptide)
peptide: Y[dC]GF[dC]PLW-{NH(3,5-(CF3)2-benzyl)}
modifications: disulfide 2-5
notes: cyclic; also called TY037; [D-Cys2, D-Cys5]TY027
LogIC50 (rat NK1 receptor [2]): -6.9 | Ki (human δ opioid receptor [3]): 7.8 nM | LogIC50 (human δ opioid receptor [3]): -7.8 | GPI (µ) IC50 [5]: 280 nM | GPI Substance P antagonist Ke (guinea pig NK1 receptor [6]): 4.7 nM | Ki (rat µ opioid receptor [7]): 52 nM | LogIC50 (rat µ opioid receptor [7]): -6.9 | [35S]GTPγS binding EC50 (human δ opioid receptor [8]): 14 nM | [35S]GTPγS binding Emax (human δ opioid receptor [8]): 22% | [35S]GTPγS binding LogEC50 (human δ opioid receptor [8]): -7.9 | [35S]GTPγS binding EC50 (rat µ opioid receptor [11]): 53 nM | [35S]GTPγS binding Emax (rat µ opioid receptor [11]): 12% | [35S]GTPγS binding LogEC50 (rat µ opioid receptor [11]): -7.3

Y[dA]GFW-{OBzl(3,5-(CF3)2)} [Tyr-D-Ala-Gly-Phe-Trp-O-3′,5′(CF3)2-Bzl (NP36)]
GPI µ-agonist IC50 [1]: 523 nM

Y[dA]GFMPLW-{NH(3,5-(CF3)2-benzyl)} (also called TY027) [TyrDAlaGlyPheMetProLeuTrpNHBn(CF3)2]
GPI (µ) IC50 [12]: 490 nM | Ki (rat NK1 receptor [2]): 7.3 nM | LogIC50 (rat NK1 receptor [2]): -7.6 | LogIC50 (human δ opioid receptor [3]): -8.8 | GPI/LMMP IC50 [13]: 488 nM | GPI (µ) IC50 [5]: 490 nM | Ki (rat NK1 receptor [14]): 7.27 nM | [35S]GTPγS binding EC50 (human δ opioid receptor [8]): 8.6 nM | [35S]GTPγS binding Emax (human δ opioid receptor [8]): 58% | [35S]GTPγS binding LogEC50 (human δ opioid receptor [8]): -8.1

Y[dA]GFFPLW-{OBzl(3,5-(CF3)2)} (also called TY003) [TyrDAlaGlyPhePheProLeuTrpOBn(CF3)2]
Ki (rat µ opioid receptor [15]): 28.3 nM | GTP binding EC50 (human δ opioid receptor [16]): 20.8 nM | GTP binding Emax (human δ opioid receptor [16]): 39% | GTP binding EC50 (rat µ opioid receptor [17]): 58.7 nM | GTP binding Emax (rat µ opioid receptor [17]): 36.3% | IC50 (rat NK1 receptor [18]): 19.3 nM | Ki (human δ opioid receptor [19]): 14.6 nM | GPI/LMMP, inhibition at 1 mM [20]: 7% | GPI/LMMP SP antagonist Ke (guinea pig NK1 receptor [21]): 14.4 nM
